The target in assay [1] is HLA-C*07:02-A*02:01 chimera of Example 4 (heavy chain with human β2m) (human).
The target of assay [2] is HLA-C*07:02/A*02:01 chimera of Example 2 (heavy chain with human β2m) (human).

Regarding RYRPGTVAL (modifications not checked) [RYR peptide (…)], the Tm in assay [1] came to 49.8 °C; in assay [2], 48.3 °C.

The values above are taken from patent US20250299771A1.
